The text below walks through data of patent publication US20250101091A1.

For assay [1], the target named is Cleaved cynomolgus monkey epiregulin (cynomolgus monkey). In words: cell-based or functional assay.
In assay [2] the target is Cleaved human epiregulin (human) (UniProt O14944). In words: cell-based or functional assay.
The target of assay [3] is Cleaved rabbit epiregulin (rabbit). In words: cell-based or functional assay.
The target of assay [4] is Cleaved rat epiregulin (rat) (UniProt Q9Z0L5). In words: cell-based or functional assay.
In assay [5] the target is Cleaved human epiregulin (human) (UniProt O14944). In words: ELISA: biotinylated ligand (20 nM) captured on neutravidin plate, antibody titrated 1:3, anti-human kappa-AP detection, OD405 [panel B]. For orientation: ELISA stands for enzyme-linked immunosorbent assay.
Assay [6] addresses TGFα (human) (UniProt P01135). The assay is described as above.

For the substance LY3016859 (antibody), the IC50, neutralization of epiregulin induced luciferase reporter activity in C166-AP1-Luciferase cells in assay [1] turned out to be 8.6 nM; in assay [2], 25.9 nM; in assay [3], 11 nM; in assay [4], 720 nM. In assay [2], the IC50, neutralization of human epiregulin induced phospho-ERK induction in TGW cells was 14.6 nM. In addition, the values for the 50% effective concentration (EC50 (read off the curve)) in assay [5] and in assay [6] were 0.03 µg/mL and 0.02 µg/mL, respectively.

One may read the EC50 (read off the curve) as the concentration at which the effect is half-maximal.
